Patent US7250395B2, “Antagonist peptides to VEGF receptor Flt-1” (Beijing Institute for Cancer Research, priority 2001, dated 2007)
Where a chain is given by its changes, count along the chain named. Entries after “also recorded” stand apart in the source; their conditions may differ.

B1: DHFR-F56: fusion protein composed of peptide F56 and dihydrofolate reductase, expressed in E. coli M15 (protein)
chain: MVRPLNCIVAVSQNMGIGKNGDLPWPPLRNEFKYFQRMTTTSSVEGKQNLVIMGRKTWFSIPEKNRPLKDRINIVLSRELKEPPRGAHFLAKSLDDALRLIEQPELASKVDMVWIVGGSSVYQEAMNQPGHLRLFVTRIMQEFESDTFFPEIDLGKYKLLPEYPGVLSEVQEEKGIKYKFEVYEKKWHSDMEWWYLLG
B2: DHFR-F90: fusion protein composed of peptide F90 and dihydrofolate reductase, expressed in E. coli M15 (protein)
chain: B1 chain with S189D, D190P, M191T, E192P, Y195S, L196W, L197E, G198I
B3: dihydrofolate reductase (protein)
chain: MVRPLNCIVAVSQNMGIGKNGDLPWPPLRNEFKYFQRMTTTSSVEGKQNLVIMGRKTWFSIPEKNRPLKDRINIVLSRELKEPPRGAHFLAKSLDDALRLIEQPELASKVDMVWIVGGSSVYQEAMNQPGHLRLFVTRIMQEFESDTFFPEIDLGKYKLLPEYPGVLSEVQEEKGIKYKFEVYEKK
notes: dihydrofolate reductase, negative control protein

Experiments:
[1] = test system: chick chorioallantoic membrane blood vessels; assay: Proliferation of blood vessels on chick chorioallantoic membrane; type: in vivo
Method: In this example, a proliferation assay on chick chorioallantoic membrane blood vessels was carried out to detect the inhibition of F56 to angiogenesis.
The experiment was carried out according to a method described by Fu Shengfa et al. (Fu Shengfa, Lu Yinglin and Zhang Chaoshan: Technique of detecting the effects of vascular growth factor with chorioallantoic membrane of fertilized chicken eggs. Chin Mili. Acad. Medi. Scie. 1993, 17:294-97”). Particularly, fresh inseminated chicken eggs were soaked in 0.1% benzalkonium bromide solution for 2 minutes at 38° C., and incubated in an incubator at 37.5° C., 60-70% humidity for 3 days. Then, the eggs were stripped and cultured on a petri dish. When the allantoic membrane grew to about 1cm^2, the different groups (5 chick embryos per group) were treated with the following agents. VEGF165 (2 μg/L), DHFR (negative control) or 18 μl F56 solution (0.8 μg/μl) was dropped onto a glass-fiber filter membrane (Φ5 mm). The membrane was placed on the distal end (in relation to the heart of the embryo) of the chorioallantoic membrane. The agents were administered once in the morning and once in the evening for 2 days. The results were observed and recorded by photography. The experiment was repeated twice (Kodak 100, exposed for 3 s).

[2] = test system: human umbilical cord vein-derived endothelial cells (HUVECs); assay: VEGF-stimulated proliferation of HUVECs (3H-TdR incorporation); type: cell-based; details: 50, 100, 200, 300 μmol/L with VEGF165, 48 hours; FIG. 2
Method: A sample of human umbilical cord (obtained from Beijing Gynecological and Obstetric Hospital) was digested by 0.1% collagenase II (purchased from GIBCO BRL Corporation), and centrifuged at 1000 rpm for 10 minutes to collect the human umbilical cord vein-derived endothelial cells (HUVECs). The cells were suspended in 20% FCS/RPMI 1640 (purchased from GIBCO BRL Corporation), and transferred to a plastic culture flask and cultured in a incubator (37° C., 5% CO2) for 2 days. Then, the cultured HUVECs were digested with 0.04% trypsin-EDTA, and inoculated into a 24-well plate at 3×10^4 cells/well. After 24 hours' incubation, the cells were incubated for another 24 hours in new medium 2% FCS/RPIM 1640. VEGF165 (product of Sigma Corporation) was added either independently or as a mixture with peptide F56 or F90 of different concentrations (50, 100, 200, 300 μmol/L). 4 parallel wells were used for each group. The cells were incubated for 48 hours. Then, ^3H-TdR(1 μci/ml) was added and the cells were incubated for another 8 hours. The cells were collected to a glass-fiber filter membrane. The cpm value was detected according to conventional methods. The same experiment was repeated for 3 times.

[3] = test system: human breast cancer cells; assay: Metastasis model of breast cancer in SCID mice; type: in vivo
Method: In order to observe the inhibitory activity of the peptides of the present invention to cancer metastasis, a metastasis model of breast cancer in SCID mice as described by Li Zhihong at al. (Transplant of human breast cancer in nude mice. Natl. Med J Chin. Vol.80 (11), 2000) was used to determine the function of F56. Briefly, human breast cancer cells were inoculated under the fat pad in the breast of SCID mice. Peptide F56 (0.5 mmol/L) was injected topically (60 μl per mouse per time) on the next day and every other day for 10 times in total. After 8 weeks, the mice were put to dead. The tumors were taken out and weighted. The whole lung was taken out, fixed and sliced with maximal cross-section and dyed by HE. The number of metastatic foci was counted.

[4] = molecular target: T1, sKDR (Homo sapiens, UniProt P35968); assay: ELISA test of binding specificity to soluble receptor sKDR; details: for reaction with KDR (in words): ELISA; for ELISA (OD492 nm), SKDR: plate coated with sKDR 5 mg/L, detection with DHFR-specific monoclonal antibody
T1 construct: made in house
T1 sequence (P35968 20-764 limits assumed): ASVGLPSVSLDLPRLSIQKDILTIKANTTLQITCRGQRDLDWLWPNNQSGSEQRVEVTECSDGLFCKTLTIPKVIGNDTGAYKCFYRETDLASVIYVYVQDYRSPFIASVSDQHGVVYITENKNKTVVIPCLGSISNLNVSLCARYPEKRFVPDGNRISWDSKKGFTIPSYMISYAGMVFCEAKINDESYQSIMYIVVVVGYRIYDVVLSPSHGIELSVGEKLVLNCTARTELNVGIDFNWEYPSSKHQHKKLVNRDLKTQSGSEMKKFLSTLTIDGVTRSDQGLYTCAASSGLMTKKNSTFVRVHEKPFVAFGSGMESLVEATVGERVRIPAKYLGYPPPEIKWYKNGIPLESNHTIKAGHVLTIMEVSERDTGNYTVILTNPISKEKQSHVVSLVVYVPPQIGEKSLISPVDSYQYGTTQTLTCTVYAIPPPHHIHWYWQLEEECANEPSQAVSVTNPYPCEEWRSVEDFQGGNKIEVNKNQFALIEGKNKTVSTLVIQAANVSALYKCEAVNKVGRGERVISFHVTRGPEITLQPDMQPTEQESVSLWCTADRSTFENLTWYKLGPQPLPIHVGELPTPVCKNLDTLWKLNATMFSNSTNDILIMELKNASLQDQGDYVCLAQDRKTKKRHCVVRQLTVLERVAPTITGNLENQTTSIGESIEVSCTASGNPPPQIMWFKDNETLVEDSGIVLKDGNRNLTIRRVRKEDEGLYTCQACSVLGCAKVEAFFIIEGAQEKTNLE
Method: (§1) The specificity of the binding of the fusion proteins DHFR-F56 and DHFR-F90 to receptor Flt-1 was tested by ELISA in the present example.
(§2) Particularly, a 96-well plate was coated with soluble receptors, sFlt-1, sKDR (5 mg/L, 50 μl/well) [Song Shumei, Shou Chengchao: Molecular cloning and its expression of vascular endothelia growth factor receptor KDR. Chin J. Biochem. Mol. Bio. 1998, 14 (1): 57-61; An Ping, Dong Zhewei and Shou Chengchao: Molecular cloning and its bio-activity of soluble VEGF receptor expressed in bacterial. Chin J. Biochem. Mol. Bio. 2000, 16 (1): 62-66]. Alternatively, the vascular endothelial cells in a 96-well plate were fixed by pre-cooled 0.125% glutaraldehyde solution. DHFR, DHFR-F56 or DHFR-F90 was added to the plate after blocking. An ELISA assay was carried out using a DHFR-specific monoclonal antibody according to conventional method. The ELISA assay was repeated for 3 times.

[5] = molecular target: T2, soluble receptor of VEGF, Flt-1 (sFlt-1) (Homo sapiens, UniProt P17948); assay: 125I-VEGF competitive binding assay on coated sFlt-1; details: 1, 5, 10, 15, 20 μg/ml; 125I-VEGF 2 μg/L; FIG. 1
T2 construct: coated overnight at 4° C. by 0.5 mg/L soluble receptor of VEGF, Flt-1 (sFlt-1)
T2 sequence (P17948 27-758 limits assumed, species assumed): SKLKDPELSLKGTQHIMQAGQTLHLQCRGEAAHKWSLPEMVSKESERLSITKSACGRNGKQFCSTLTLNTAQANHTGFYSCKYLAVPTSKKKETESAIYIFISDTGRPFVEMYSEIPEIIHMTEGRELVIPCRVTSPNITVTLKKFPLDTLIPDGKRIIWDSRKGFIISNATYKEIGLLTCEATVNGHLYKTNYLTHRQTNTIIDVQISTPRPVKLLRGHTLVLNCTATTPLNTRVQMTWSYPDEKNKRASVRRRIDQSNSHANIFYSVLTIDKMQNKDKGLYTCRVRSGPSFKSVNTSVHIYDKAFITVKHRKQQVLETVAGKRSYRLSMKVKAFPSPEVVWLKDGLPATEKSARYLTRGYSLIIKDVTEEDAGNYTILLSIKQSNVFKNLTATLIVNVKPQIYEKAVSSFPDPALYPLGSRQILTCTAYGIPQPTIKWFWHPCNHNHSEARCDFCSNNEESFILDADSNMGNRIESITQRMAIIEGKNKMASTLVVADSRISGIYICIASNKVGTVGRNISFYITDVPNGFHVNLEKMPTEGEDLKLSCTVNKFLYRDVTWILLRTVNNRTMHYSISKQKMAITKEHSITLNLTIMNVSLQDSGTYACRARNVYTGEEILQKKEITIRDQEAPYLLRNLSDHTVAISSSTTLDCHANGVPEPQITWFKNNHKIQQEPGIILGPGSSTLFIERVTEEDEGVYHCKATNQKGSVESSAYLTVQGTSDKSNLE
Method: In order to detect the activity of DHFR-F56 blocking VEGF binding to sFlt-1, a binding assay was carried out using ^125I-VEGF (purchased from Life Technology Inc.).
The experiment was carried out according to a method substantially as described by Tanaka, K., et al (Characterization of the extracellular domain in vascular endothelial growth factor receptor-1 (Flt-1 tyrosine kinase). Jpn J Cancer Res. 1997, 88:867-876). Briefly, a 96-well plate was coated overnight at 4° C. by 0.5 mg/L soluble receptor of VEGF, Flt-1 (sFlt-1). The coating solution was 0.01 mol/L phosphate buffer (pH 6.2). Then, the plate was rinsed with a washing solution (0.9% NaCl, 0.01 mol/L, pH6.2) for 3 times. 250 μl blocking buffer (0.3% BSA, 25 mmol/L HEPES, DMEM, pH7.6) was added into each well for 3 hours at room temperature. DHFR-F56 of different concentrations (1, 5, 10, 15, 20 μg/ml) (DHFR of different concentrations for the control group) and ^125I-VEGF (purchased from Life Technology Inc.) of fixed concentration (2 μg/L, […]) were added to the wells. 2 parallel wells were used for each concentration. The binding reaction underwent for 1 hour at room temperature. The plate was rinsed 4 times with the binding buffer. […] The cpm value was determined by a Wallac co liquid-scintillation counter after the solid residue had been dissolved.

[6] = test system: MGC803 cells (a human gastric carcinoma cell line); assay: Tumor inhibition test, MGC803 implanted in Balb/c nude mice; type: in vivo; details: 150 μg/100 μl intraperitoneally every other day for 10 times; for growth of human gastric carcinoma MGC803 cells in Balb/c nude mice: p<0.05 vs DHFR control
Method: To testify whether DHFR-F56 and DHFR-F90 can inhibit tumor growth on the basis of anti-angiogenesis, a tumor inhibition test on Balb/c nude mice was performed.
MGC803 cells (a human gastric carcinoma cell line) was subcutaneously implanted on the right buttock of eight 5-week aged nude mice (purchased from the Animal Center of the Chinese Academy of Medical Sciences) (2×10^6 cells/0.1 ml/each mouse). On the fifth day after the implantation, the nude mice were grouped at random into […] each of which included 4 mice. DHFR (150 μg/100 μl per time), DHFR-F56 or DHFR-F90 (150 μg/100 μl per time) was injected intraperitoneally every other day for 10 times. […] The major and minor axes of the tumors were measured by vernier caliper every three days during the observation period. The volume of the tumor was calculated according to the formula of ½×major axis×minor axis^2. After the 30 days, the nude mice were put to dead by neck-breaking. The tumors were weighted and analyzed statistically.

[7] = test system: vascular endothelial cells; assay: ELISA test of binding to fixed vascular endothelial cells; details: for binding to endothelial cells (in words): ELISA; for ELISA (OD492 nm), EC: glutaraldehyde-fixed vascular endothelial cells, DHFR-specific monoclonal antibody
Method: as §1, §2

[8] = molecular target: T3, sFlt-1 (Homo sapiens, UniProt P17948); assay: ELISA test of binding specificity to soluble receptor sFlt-1; details: for binding to Flt-1 (in words): ELISA; for ELISA (OD492 nm), SFlt-1: plate coated with sFlt-1 5 mg/L, detection with DHFR-specific monoclonal antibody
T3 construct: made in house
T3 sequence (P17948 27-758 limits assumed, species assumed): as above
Method: as §1, §2

[9] = on filter membrane, twice daily for 2 days, FIG. 3
[10] = 0.5 mmol/L 60 μl topically, 10 times
[11] = lung, 0.5 mmol/L 60 μl topically, 10 times, after 8 weeks

Molecule | effect on chick chorioallantoic membrane blood vessels [1, 9] | inhibition to the proliferation of umbilical cord vein-derived endothelial cells [2] | reaction with KDR (in words) [4] | ELISA (OD492 nm), SKDR [4] | binding of 125I-VEGF to coated sFlt-1 [5] | growth of human gastric carcinoma MGC803 cells in Balb/c nude mice [6] | binding to endothelial cells (in words) [7] | ELISA (OD492 nm), EC [7] | binding to Flt-1 (in words) [8] | ELISA (OD492 nm), SFlt-1 [8] | other results
H2N-Trp-His-Asp-Pro-Thr-Pro-Trp-Trp-Ser-Trp-Glu-Ile-COOH (H-WHDPTPWWSWEI-OH) [Peptide F90] | derangeable in distribution and atrophic | no significant inhibition | – | – | – | – | – | – | – | – | –
H2N-Trp-His-Ser-Asp-Met-Glu-Trp-Trp-Tyr-Leu-Leu-Gly-COOH (H-WHSDMEWWYLLG-OH) [Peptide F56] | rupture of blood vessels and bleeding in addition to blood vessel atrophy; also recorded: derangeable in distribution and atrophic | no significant inhibition | – | – | – | – | – | – | – | – | cancer metastasis to lung (in words) [3, 10]: significantly inhibit cancer metastasis to lung; tumor growth on the injection sites (in words) [3, 10]: inhibition of tumor growth on the injection sites; Number of metastatic foci in each mouse, mouse 1 [3, 11]: 0; Number of metastatic foci in each mouse, mouse 2 [3, 11]: 0; Number of metastatic foci in each mouse, mouse 3 [3, 11]: 1; Number of metastatic foci in each mouse, mouse 4 [3, 11]: 2; Number of metastatic foci in each mouse, mouse 5 [3, 11]: 2; Mean number of metastatic foci ([3]; lung, 5 mice, after 8 weeks): 1.0; Total number of metastatic foci ([3]; lung, 5 mice, after 8 weeks): 5; Metastasis inhibition (%) ([3]; lung, versus solvent, after 8 weeks): 70.5%
VEGF [reference compound] | – | – | – | – | – | – | – | – | – | – | effect on chick chorioallantoic membrane blood vessels ([1]; in vivo): can promote the proliferation; also recorded: stimulated the blood vessels to proliferate significantly
B1 | – | – | no notable reaction | 0.081 | decreases along with the increase of the concentration of DHFR-F56 | can inhibit the growth | can bind | 0.477 | can bind | 0.529 | necrosis of tumor ([6]; FIG. 4): result in necrosis of tumor
B2 | – | – | no notable reaction | 0.074 | – | can inhibit the growth | can bind | 0.384 | can bind | 0.415 | –
B3 | no notable effect | – | no reaction | 0.074 | no notable effect | – | no reaction | 0.080 | no reaction | 0.088 | –
